# According to patent publication US20250027068:
# Changes are numbered by the printed parent chain.
# B1: PRT-439 (protein)
# chain: MSQTEDSESLQRLRDIEDFQAEKKKQNVVYTKWLDGVDVKDHDFRKIVDGNIAYYATPLLNGRGFYDINKDFNRDSDKCAAAVAANMFHYWLDRNRDNVDRFLRQNPEKHGIIELPDGQLKLSDFLNTYESDDGYRDKSKLFDFISNNFNGPVWTDKLLDNYINGYAYNYKYGRLIEDPTKNTSKINFFKEVFNEKILTNNHSIRNQNEFSVLLSEALYTGKAIGLSYGPAGLRHSLGHIISVWGADLDADGNVVAIYVTDSDDKKLTIGDERVGLKRYKISTDDEGRLRLTAYEETHNTGGQIRGLWTLDTGKQAWADYFDKTEQTGTDQAEQ
# B2: PRT-434 (protein)
# chain: B1 chain with L175T, S236G
# B3: PRT-433 (protein)
# chain: B1 chain with L175T, S215I
# B4: PRT-442 (protein)
# chain: B1 chain with S76N, L175T
# B5: PRT-384 (protein)
# chain: MVTSVWTKGVTPPTNFTYGEDVLHAPYVANQGWYDITKTFNGKDDLLCGAATAGNMLHWWFDQNKEQIENYLKKHPEKQKINFNGEQMFDVKEAIDTKDSQLDSKLFEYFKEKAFPNLSTKHLGVFPDHVIDMFINGYRLSLTNHGPTPVKRGSKDPRGGIFDAVFTRGDQSKLLTNRHDFKEKTLKEISDLIKQELTEGKALGISHTYANVRINHVINLWGADFDAEGNLEAIYVTDSDSNASIGMKKYFVGVNSNGKVAISAKEIEEDNIGAQVLGLFTLSTGQDIWNQTN
# B6: PRT-392 (protein)
# chain: B5 chain with N117Y, D170V
# B7: PRT-415 (protein)
# chain: MTITSVWTKGVTPPTPEDFRYNNEDVLHAPYVANQGWYDITKTFDGKDNLLCGAATAGNMLHWWFDQNKEEIERYLKKHPEKQKIIFNNQELFDVKAAIDTKDSQTNSKLFNYFLDKAFPNLSARQLGVMPDLVLDMFINGYYLNLGKTQSTDVNRPYQDKDKRGGIFDAVFTRGDQTTLLTARHDLKNKGLNEISDLIKQELTEGKALALSHTYANVRINHVINLWGADFDAEGNLIAIYVTDSDANASIGMKKYFVGVNANGKVAISAKKIEGDNIGAQVLGLFTLSTGQDIWQKLS
# B8: PRT-416 (protein)
# chain: B7 chain with L115R, G147P
# B9: PRT-423 (protein)
# chain: B7 chain with L115R, V260R
# B10: PRT-424 (protein)
# chain: B7 chain with L115R, T290L
# B11: PRT-399 (protein)
# chain: MVTSVWTKGVTPPADFTQGEDVFHAPYVANQGWYDITKTFNGKDDLLCGAATAGNMLHWWFDQNKEYIEAYLKKHPEKQKIMFGDQELLDVRKAINTKGSQKNSELFNYFRDKAFPNLSARRLGVMPDLVLDMFINGYYLNVTKTQTTDVNRTYQEKDKRGGIFDAVFTRGDQSKLLTSRHDFKEKGLKEISDLIKQELTEGKALGLSHTYANVRINHVINLWGADFDSDGNLKAIYVTDSDSNASIGMKKYVVGVNSAGKVAISAKEIKEDNIGAQVLGLFTLSTGQDIWNQTN
# B12: PRT-408 (protein)
# chain: B11 chain with M126F, V253F
# B13: PRT-407 (protein)
# chain: B11 chain with M82I, V253F
# B14: PRT-400 (protein)
# chain: B11 chain with V28D, V253F
# B15: PRT-598 (protein)
# chain: MANQEIRYSEETPSTITSVWTKGVTPPTDFIQNEDVLHAPYIANQGWYDITKTFNGKDDLLCGAATAGNMLHWWFDQNKEQIENYLKKHPEKQKINFNGEQMFDVKEAIDTKDSQTDSALFEYFKDKAFPYLSTKHLGVFPDHVIDMFINGYRLSLTNHGPTPVKRGTKDPRGGIFDAVFTRGDQSKLLTSRHDFKEKTLNEISDLIKQELTEGKALGLSHTYANVRINHVINLWGADFNAEGNLEAIYVTDSDSNASIGMKKYFVGVNSAGKVAISAKEIEGDNIGAQVLGLFTLSTGQDIWNQTNLEHHHHHH
# Target: pooled human IgG (human IgG1, 2, 3 and 4)
Protein,Enzyme Activity Endpoint Assay (purified): Fab′2,Enzyme Activity Endpoint Assay (purified): Fc,Enzyme Activity Endpoint Assay (purified): IgG,Enzyme Activity Endpoint Assay (purified): scIgG,Enzyme Activity Endpoint Assay: Fab′2,Enzyme Activity Endpoint Assay: Fc,Enzyme Activity Endpoint Assay: IgG,Enzyme Activity Endpoint Assay: scIgG,Enzyme Activity Endpoint Assay (purified): Fab'2
B1,179 ng/µL,191 ng/µL,325 ng/µL,528 ng/µL,179 ng/µL,191 ng/µL,325 ng/µL,528 ng/µL,–
B2,567 ng/µL,314 ng/µL,0 ng/µL,234 ng/µL,567 ng/µL,314 ng/µL,0 ng/µL,234 ng/µL,–
B3,575 ng/µL,489 ng/µL,0 ng/µL,224 ng/µL,575 ng/µL,489 ng/µL,0 ng/µL,224 ng/µL,–
B4,–,–,–,–,18 ng/µL,169 ng/µL,680 ng/µL,381 ng/µL,–
B5,365 ng/µL,0 ng/µL,1510 ng/µL,0 ng/µL,365 ng/µL,0 ng/µL,1510 ng/µL,0 ng/µL,–
B6,513 ng/µL,354 ng/µL,0 ng/µL,196 ng/µL,513 ng/µL,354 ng/µL,0 ng/µL,196 ng/µL,–
B7,46 ng/µL,225 ng/µL,164 ng/µL,630 ng/µL,46 ng/µL,225 ng/µL,164 ng/µL,630 ng/µL,–
B8,–,–,–,–,125 ng/µL,258 ng/µL,96 ng/µL,453 ng/µL,–
B9,398 ng/µL,0 ng/µL,1660 ng/µL,0 ng/µL,398 ng/µL,0 ng/µL,1660 ng/µL,0 ng/µL,–
B10,–,–,–,–,618 ng/µL,348 ng/µL,88 ng/µL,0 ng/µL,–
B11,0 ng/µL,0 ng/µL,1580 ng/µL,0 ng/µL,0 ng/µL,0 ng/µL,1580 ng/µL,0 ng/µL,–
B12,–,–,–,–,564 ng/µL,334 ng/µL,179 ng/µL,0 ng/µL,–
B13,209 ng/µL,277 ng/µL,90 ng/µL,396 ng/µL,209 ng/µL,277 ng/µL,90 ng/µL,396 ng/µL,–
B14,556 ng/µL,333 ng/µL,176 ng/µL,0 ng/µL,556 ng/µL,333 ng/µL,176 ng/µL,0 ng/µL,–
B15,–,172 ng/µL,0 ng/µL,213 ng/µL,567 ng/µL,172 ng/µL,0 ng/µL,213 ng/µL,567 ng/µL
